# Results reported in publication PMC3605141, “NODULE INCEPTION Directly Targets NF-Y Subunit Genes to Regulate Essential Processes of Root Nodule Development in Lotus japonicus”.
# T1: NIN(520-878)-myc (C-ter) (Lotus japonicus) (UniProt Q9S7B1)
# T1 sequence: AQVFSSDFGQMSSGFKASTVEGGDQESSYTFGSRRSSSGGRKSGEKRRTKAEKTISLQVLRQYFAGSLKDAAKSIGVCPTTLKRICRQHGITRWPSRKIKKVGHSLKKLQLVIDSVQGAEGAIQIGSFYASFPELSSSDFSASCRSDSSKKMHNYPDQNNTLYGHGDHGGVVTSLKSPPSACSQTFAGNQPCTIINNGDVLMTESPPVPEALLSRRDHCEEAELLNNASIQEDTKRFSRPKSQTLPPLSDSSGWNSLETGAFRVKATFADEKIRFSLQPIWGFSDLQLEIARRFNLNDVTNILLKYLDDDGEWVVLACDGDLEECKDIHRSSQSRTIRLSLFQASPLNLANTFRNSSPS
# T2: NIN-myc (Full) (Lotus japonicus) (UniProt Q9S7B1)
# T2 sequence: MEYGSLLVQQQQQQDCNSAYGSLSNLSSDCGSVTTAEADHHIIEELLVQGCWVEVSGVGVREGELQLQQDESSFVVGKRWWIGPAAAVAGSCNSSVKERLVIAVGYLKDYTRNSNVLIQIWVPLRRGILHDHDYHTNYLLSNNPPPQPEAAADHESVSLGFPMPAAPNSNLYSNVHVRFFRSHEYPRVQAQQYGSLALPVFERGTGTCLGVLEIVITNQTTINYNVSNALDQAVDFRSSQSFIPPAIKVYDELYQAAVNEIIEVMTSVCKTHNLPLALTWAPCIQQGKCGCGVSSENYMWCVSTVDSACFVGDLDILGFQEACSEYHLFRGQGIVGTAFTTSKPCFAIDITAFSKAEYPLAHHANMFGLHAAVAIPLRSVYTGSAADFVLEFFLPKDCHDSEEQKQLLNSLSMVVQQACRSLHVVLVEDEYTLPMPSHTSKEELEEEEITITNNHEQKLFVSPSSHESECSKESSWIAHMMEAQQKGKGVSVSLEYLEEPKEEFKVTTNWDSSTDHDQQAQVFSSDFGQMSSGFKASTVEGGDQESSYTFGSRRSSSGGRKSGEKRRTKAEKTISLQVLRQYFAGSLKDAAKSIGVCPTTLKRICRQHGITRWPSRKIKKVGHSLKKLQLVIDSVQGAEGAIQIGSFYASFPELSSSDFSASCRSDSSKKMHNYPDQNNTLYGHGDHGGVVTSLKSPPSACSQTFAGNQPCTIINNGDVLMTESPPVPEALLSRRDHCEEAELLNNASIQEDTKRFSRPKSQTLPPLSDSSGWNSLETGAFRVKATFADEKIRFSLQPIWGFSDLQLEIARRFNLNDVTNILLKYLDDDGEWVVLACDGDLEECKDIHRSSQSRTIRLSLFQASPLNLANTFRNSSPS
# Assays:
# [1] = molecular target: T1, NIN(520-878)-myc (C-ter) (Lotus japonicus); assay: EMSA; conditions: 20 mM Hepes-KOH pH 7.9, 50 mM KCl, 1 mM MgCl2, 1 mM DTT, 4% glycerol, 0.1% Triton X-100, 2 ug BSA, 400 ng dIdC, 20 ul, 30 min at room temperature; 10-30 fmol …
# [2] = molecular target: T2, NIN-myc (Full) (Lotus japonicus); assay: EMSA; conditions: 20 mM Hepes-KOH pH 7.9, 50 mM KCl, 1 mM MgCl2, 1 mM DTT, 4% glycerol, 0.1% Triton X-100, 2 ug BSA, 400 ng dIdC, 20 ul, 30 min at room temperature; 10-30 fmol …
# NIN(520-878)-myc (C-ter) = NIN(520-878)-myc (C-ter) (Lotus japonicus, UniProt Q9S7B1 520-878); assay: EMSA; 20 mM Hepes-KOH pH 7.9, 50 mM KCl, 1 mM MgCl2, 1 mM DTT, 4% glycerol, 0.1% Triton X-100, 2 ug BSA, 400 ng dIdC, 20 ul, 30 min at room temperature; 10-30 fmol 32P probe; conditions: protein: ivt, tags: myc
Molecule,binding [1],binding result (NIN(520-878)-myc (C-ter); label: 32P),also measured
AAAGAGTGAAGATGAATATGAAATATCCCTTGGAAAGCTCTAAAG (double strand) [LjNF-YB1 probe 13],no binding,,
GAGAAAATGCTAGTTTTTAAAAAGAGAACCTTTATTTTTTTAAATATTGTATTTACGAAGAAAACTGAAAAAGAACAGATGATTTCAGTTAGATTGCTTGGCCCCCTTCTTATCTGGACAGGCATTTTCCTG (double strand) [LjNF-YA1 probe 9],binds,,binding [2]: binds
GGCCTTTGAGGCCGCTCAAAAGAGTGAAGATGAATATGAAAT (double strand) [LjNF-YB1 probe 12],no binding,,
GTTAATGGATGCTGAGAAGGCCTTTGAGGCCGCTCAAAAGAGTGAAGATGAATATGAAATATCCCTTGGAAAGCTCTAAAG (double strand) [LjNF-YB1 probe 9],binds,,binding [2]: binds
TACAATTCTTTACTTTCAATACAAAAAACCCCATCAATTTACTTGTATCTTTAG (double strand) [LjNF-YB1 probe 15],no binding,,
TCACTTTGGTGGATGTGGATATACAATTCTTTACTTTCAATACAAAAAACC (double strand) [LjNF-YB1 probe 16],no binding,,
TCACTTTGGTGGATGTGGATATACAATTCTTTACTTTCAATACAAAAAACCCCATCAATTTACTTGTATCTTTAGAGCTTTCCAAGGGATATTTC (double strand) [LjNF-YB1 probe 10],binds,,binding [2]: binds
TCTTTTGAGCGGCCTCAAAGGCCTTCTCAGCATCCATTAAC (double strand) [LjNF-YB1 probe 11],no binding,,
probe 14 m3 (dsDNA) DNA 1: AAACCCCATCAATTTACTTGTTAGAAAAGAGCTTTCCAAGGGATATTTC DNA 2: GAAATATCCCTTGGAAAGCTCTTTTCTAACAAGTAAATTGATGGGGTTT,,no binding,
NBS-yB1a m14 (dsDNA) DNA 1: TACTTGTATCTTTAGAGCTTTCCAAGGGTATTTTC DNA 2: GAAAATACCCTTGGAAAGCTCTAAAGATACAAGTA,,no binding,
probe 14 m5 (dsDNA) DNA 1: AAACCCCATCAATTTACTTGTATCTTTAGAGCTTTCCAACCCTATTTTC DNA 2: GAAAATAGGGTTGGAAAGCTCTAAAGATACAAGTAAATTGATGGGGTTT,,no binding,
NBS-yB1a m13 (dsDNA) DNA 1: TACTTGTATCTTTAGAGCTTTCCAACCCATATTTC DNA 2: GAAATATGGGTTGGAAAGCTCTAAAGATACAAGTA,,no binding,
NBS-yB1a m8 (dsDNA) DNA 1: TACTTGTATCAAAAGAGCTTTCCAAGGGATATTTC DNA 2: GAAATATCCCTTGGAAAGCTCTTTTGATACAAGTA,,no binding,
NBS-yB1a m12 (dsDNA) DNA 1: TACTTGTATCTTTAGAGCTTTCGTTGGGATATTTC DNA 2: GAAATATCCCAACGAAAGCTCTAAAGATACAAGTA,,,binding result (NIN(520-878)-myc (C-ter); label: 32P as probe): no binding
